# Reference: publication PMC11275528 (mAbs, 2024)
# B1: asialofetuin (ligand)
# chain: IPLDPVAGYKEPACDDPDTEQAALAAVDYINKHLPRGYKHTLNQIDSVKVWPRRPTGEVYDIEIDTLETTCHVLDPTPLANCSVRQQTQHAVEGDCDIHVLKQDGQFSVLFTKCDSSPDSAEDVRKLCPDCPLLAPLNDSRVVHAVEVALATFNAESNGSYLQLVEISRAQFVPLPVSVSVEFAVAATDCIAKEVVDPTKCNLLAEKQYGFCKGSVIQKALGGEDVRVTCTLFQTQPVIPQPQPDGAEAEAPSAVPDAAGPTPSAAGPPVASVVVGPSVVAVPLPLHRAHYDLRHTFSGVASVESSSGEAFHVGKTPIVGQPSIPGGPVRLCPGRIRYFKI
# modifications: biotinylated (site not stated); desialylated with neuraminidase
# Biological target: T1, mouse asialoglycoprotein receptor 1 (ASGR1), FLAG tagged, expressed on CHO-S cells (mouse, UniProt P34927 1-284)
# T1 sequence (looked up): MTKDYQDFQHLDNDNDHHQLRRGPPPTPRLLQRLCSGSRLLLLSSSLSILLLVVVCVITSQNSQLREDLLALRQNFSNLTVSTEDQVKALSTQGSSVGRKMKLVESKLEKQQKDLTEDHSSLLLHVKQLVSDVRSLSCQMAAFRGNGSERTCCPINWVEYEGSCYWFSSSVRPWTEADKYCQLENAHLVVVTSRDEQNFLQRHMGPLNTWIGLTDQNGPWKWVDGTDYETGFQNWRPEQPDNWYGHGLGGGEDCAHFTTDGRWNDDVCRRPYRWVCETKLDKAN
# Assay: flow cytometry on cells
binder,measurement,value
B1,EC50,53 nM
